This note sets out measurements from article PMC10001486, “Artificial Intelligence-Based Computational Screening and Functional Assays Identify Candidate Small Molecule Antagonists of PTPmu-Dependent Adhesion” (International Journal of Molecular Sciences, 2023).

The data set concerns the molecule itself. The experiment in a line: bead aggregation assay; streptavidin MonoMag beads (1 micron) coated with biotin-tagged PTPµ21-365avi; PBS + 0.01% Tween 20; room temperature; rotation at 150 rpm for 30 min; aggregates over 50 µm^2 counted by microscopy.

B1: PTPµ21-365avi (fragment of PTPµ containing the MAM, Ig, and first FNIII repeat) (domain or fragment, human, UniProt P28827 21-365, looked up)
chain: ETFSGGCLFDEPYSTCGYSQSEGDDFNWEQVNTLTKPTSDPWMPSGSFMLVNASGRPEGQRAHLLLPQLKENDTHCIDFHYFVSSKSNSPPGLLNVYVKVNNGPLGNPIWNISGDPTRTWNRAELAISTFWPNFYQVIFEVITSGHQGYLAIDEVKVLGHPCTRTPHFLRIQNVEVNAGQFATFQCSAIGRTVAGDRLWLQGIDVRDAPLKEIKVTSSRRFIASFNVVNTTKRDAGKYRCMIRTEGGVGISNYAELVVKEPPVPIAPPQLASVGATYLWIQLNANSINGDGPIVAREVEYCTASGSWNDRQPVDSTSYKIGHLDPDTEYEISVLLTRPGEGGTGS
modifications: biotin (biotin-tagged)
notes: PTPµ, aa 21-365: MAM domain, Ig domain and first FNIII repeat; held on streptavidin beads by the biotin on the avi tag; the species is stated only for the full-length protein and by the UniProt entry; also called extracellular fragment of PTPmu; source: bacterially expressed
As to B1, the binding result is listed as “binds”.
